Experimental data taken from patent US20230295310A1 (ABCELLERA BIOLOGICS, published 2023).

Molecular target: human EGFR, C-terminal eGFP-tagged, on CHO-K1 cells (human, UniProt P00533 25-1210)
Assay: cell-based or functional assay

EC50 CHO-K1 EGFR Low (nM); T cell activation bioassay, luciferase | EC50 CHO-K1 EGFR Med (nM); T cell activation bioassay, luciferase | Binder
0.0248 nM | 0.00489 nM | GOMP001_bsAb_038 (bispecific antibody, human IgG1, kappa, L234A L235A) heavy 1: EVQLVESGGVLVKTGGSLRLSCVASGFSFKKAWMNWVRYAPGKGLEWVGRIKRNSDGGAADYAARVKDRFTLSRDDSKNTLYLQMNSLKTEDTAVYYCTTLDSSSWYVGYYYMDVWGRGTTVTVSSASTKGPSVFPLAPSSKSTSGGTAALGCLVKDYFPEPVTVSWNSGALTSGVHTFPAVLQSSGLYSLSSVVTVPSSSLGTQTYICNVNHKPSNTKVDKKVEPKSCDKTHTCPPCPAPEAAGGPSVFLFPPKPKDTLMISRTPEVTCVVVDVSHEDPEVKFNWYVDGVEVHNAKTKPREEQYNSTYRVVSVLTVLHQDWLNGKEYKCKVSNKALPAPIEKTISKAKGQPRRPRVYTLPPSREEMTKNQVSLVCLVKGFYPSDIAVEWESNGQPENNYKTTPPVLDSDGSFFLYSVLTVDKSRWQQGNVFSCSVMHEALHNHYTQKSLSLSPG light 1: DIHMTQSPSSVSASLGDRVTFTCRASQNINNWLAWYQRKPGDAPKLLIYTASSLQSGVPSRFSGSGSGTDFTLTISSLQPDDFATYYCQQAHSLPITFGQGTRLGIKRTVAAPSVFIFPPSDEQLKSGTASVVCLLNNFYPREAKVQWKVDNALQSGNSQESVTEQDSKDSTYSLSSTLTLSKADYEKHKVYACEVTHQGLSSPVTKSFNRGEC heavy 2: QVQLVQSGAEVKKPGASVKVSCKASGYTFTSHWMHWVRYAPGQGLEWIGEFNPSNGRTNYNEKFKSKATMTVDTSTNTAYMELSSLRSEDTAVYYCASRDYDYDGRYFDYWGRGTLVTVSSASTKGPSVFPLAPSSKSTSGGTAALGCLVKDYFPEPVTVSWNSGALTSGVHTFPAVLQSSGLYSLSSVVTVPSSSLGTQTYICNVNHKPSNTKVDKKVEPKSCDKTHTCPPCPAPEAAGGPSVFLFPPKPKDTLMISRTPEVTCVVVDVSHEDPEVKFNWYVDGVEVHNAKTKPREEQYNSTYRVVSVLTVLHQDWLNGKEYKCKVSNKALPAPIEKTISKAKGQPRRPRVYTLPPSREEMTKNQVSLVCLVKGFYPSDIAVEWESNGQPENNYKTTPPVLDSDGSFFLYSVLTVDKSRWQQGNVFSCSVMHEALHNHYTQKSLSLSPG light 2: DIQMTQSPSSLSASVGDRVTITCSASSSVTYMYWYQRKPGDAPKLLIYDTSNLASGVPSRFSGSGSGTDYTFTISSLQPEDIATYYCQQWSSHIFTFGQGTKVEIKRTVAAPSVFIFPPSDEQLKSGTASVVCLLNNFYPREAKVQWKVDNALQSGNSQESVTEQDSKDSTYSLSSTLTLSKADYEKHKVYACEVTHQGLSSPVTKSFNRGEC
0.369 nM | 0.0257 nM | GOMP001_bsAb_039 (bispecific antibody, human IgG1, kappa, L234A L235A) heavy 1: QVQLVQSGAEVKKPGASVKVSCKASGYTFTSHWMHWVRKAPGQGLEWIGEFNPSNGRTNYNEEFKSKATMTVDTSTNTAYMELSSLRSEDTAVYYCASRDYDYDGRYFDYWGQGTLVTVSSASTKGPSVFPLAPSSKSTSGGTAALGCLVADYFPEPVTVSWNSGALTSGVHTFPAVLQSSGLYSLSSVVTVPSSSLGTQTYICNVNHKPSNTKVDEKVEPKSCDKTHTCPPCPAPEAAGGPSVFLFPPKPKDTLMISRTPEVTCVVVDVSHEDPEVKFNWYVDGVEVHNAKTKPREEQYNSTYRVVSVLTVLHQDWLNGKEYKCKVSNKALPAPIEKTISKAKGQPREPQVYTLPPSREEMTDNQVSLTCLVKGFYPSDIAVEWESNGQPENNYKTTPPVLMSDGSFFLASKLTVDKSRWQQGNVFSCSVMHEALHNHYTQKSLSLSPG light 1: RIQMTQSPSSLSASVGDRVTITCSASSSVTYMYWYQDKPGKAPKLLIYDTSNLASGVPSRFSGSGSGTDYTFTISSLQPEDIATYYCQQWSSHIFTFGQGTKVEIKRTVAAPSVFIFPPSDKQLKSGTARVVCLLNNFYPREAKVQWKVDNALQSGNSQESVTEQDSKDSTYSLSSTLTLSKADYEKHKVYACEVTHQGLSSPVTKSFNRGEC heavy 2: EVQLVESGGGLVKTGGSHRLSCVASGFSFKKAWMNWVRYAPGKGLEWVGRIKRNSDGGTTDYAARVKGRFILSRDDSKNTLYLQMNSLKTEDTAVYYCTTLDSSSWYVGYYYMDVWGRGTTVTVSSASTKGPSVFPLAPSSKSTSGGTAALGCLVKDYFPEPVTVSWNSGALTSGVHTFPAVLQSSGLYSLSSVVTVPSSSLGTQTYICNVNHKPSNTKVDKKVEPKSCDKTHTCPPCPAPEAAGGPSVFLFPPKPKDTLMISRTPEVTCVVVDVSHEDPEVKFNWYVDGVEVHNAKTKPREEQYNSTYRVVSVLTVLHQDWLNGKEYKCKVSNKALPAPIEKTISKAKGQPRRPRVYTLPPSREEMTKNQVSLVCLVKGFYPSDIAVEWESNGQPENNYKTTPPVLDSDGSFFLYSVLTVDKSRWQQGNVFSCSVMHEALHNHYTQKSLSLSPG light 2: DIQMTQSPSSVSASVGDRVTITCRASQDINNWLAWYQRKPGDAPKILIYTASNLQSGVPSRFSGSGSGTDFTLTISSLQPEDFATYFCQQAHSLPITFGQGTRLEIKRTVAAPSVFIFPPSDEQLKSGTASVVCLLNNFYPREAKVQWKVDNALQSGNSQESVTEQDSKDSTYSLSSTLTLSKADYEKHKVYACEVTHQGLSSPVTKSFNRGEC
0.0499 nM | 0.0038 nM | GOMP001_bsAb_040 (bispecific antibody, human IgG1, kappa, L234A L235A) heavy 1: EVQLVESGGGLVKTGGSHRLSCVASGFSFKKAWMNWVRYAPGKGLEWVGRIKRNSDGGTTDYAARVKGRFILSRDDSKNTLYLQMNSLKTEDTAVYYCTTLDSSSWYVGYYYMDVWGRGTTVTVSSASTKGPSVFPLAPSSKSTSGGTAALGCLVKDYFPEPVTVSWNSGALTSGVHTFPAVLQSSGLYSLSSVVTVPSSSLGTQTYICNVNHKPSNTKVDKKVEPKSCDKTHTCPPCPAPEAAGGPSVFLFPPKPKDTLMISRTPEVTCVVVDVSHEDPEVKFNWYVDGVEVHNAKTKPREEQYNSTYRVVSVLTVLHQDWLNGKEYKCKVSNKALPAPIEKTISKAKGQPRRPRVYTLPPSREEMTKNQVSLVCLVKGFYPSDIAVEWESNGQPENNYKTTPPVLDSDGSFFLYSVLTVDKSRWQQGNVFSCSVMHEALHNHYTQKSLSLSPG light 1: DIQMTQSPSSVSASVGDRVTITCRASQDINNWLAWYQRKPGDAPKILIYTASNLQSGVPSRFSGSGSGTDFTLTISSLQPEDFATYFCQQAHSLPITFGQGTRLEIKRTVAAPSVFIFPPSDEQLKSGTASVVCLLNNFYPREAKVQWKVDNALQSGNSQESVTEQDSKDSTYSLSSTLTLSKADYEKHKVYACEVTHQGLSSPVTKSFNRGEC heavy 2: QVQLVQSGAEVKKPGASVKVSCKASGYTFTSHWMHWVRYAPGQGLEWIGEFNPSNGRTNYNEKFKSKATMTVDTSTNTAYMELSSLRSEDTAVYYCASRDYDYDGRYFDYWGRGTLVTVSSASTKGPSVFPLAPSSKSTSGGTAALGCLVKDYFPEPVTVSWNSGALTSGVHTFPAVLQSSGLYSLSSVVTVPSSSLGTQTYICNVNHKPSNTKVDKKVEPKSCDKTHTCPPCPAPEAAGGPSVFLFPPKPKDTLMISRTPEVTCVVVDVSHEDPEVKFNWYVDGVEVHNAKTKPREEQYNSTYRVVSVLTVLHQDWLNGKEYKCKVSNKALPAPIEKTISKAKGQPRRPRVYTLPPSREEMTKNQVSLVCLVKGFYPSDIAVEWESNGQPENNYKTTPPVLDSDGSFFLYSVLTVDKSRWQQGNVFSCSVMHEALHNHYTQKSLSLSPG light 2: DIQMTQSPSSLSASVGDRVTITCSASSSVTYMYWYQRKPGDAPKLLIYDTSNLASGVPSRFSGSGSGTDYTFTISSLQPEDIATYYCQQWSSHIFTFGQGTKVEIKRTVAAPSVFIFPPSDEQLKSGTASVVCLLNNFYPREAKVQWKVDNALQSGNSQESVTEQDSKDSTYSLSSTLTLSKADYEKHKVYACEVTHQGLSSPVTKSFNRGEC
